The record followed here is patent US5622828, “High-affinity oligonucleotide ligands to secretory phospholipase A2 (sPLA2)” (Nexstar Pharmaceuticals, Inc.).

Residue numbers refer to the chain shown, from its start. Like-named read-outs stand apart in the source and are kept apart here.

Data set [1] has as its target T1, secretory phospholipase A2 (sPLA2) (Homo sapiens, UniProt P14555 P14555:21-144).
T1 sequence: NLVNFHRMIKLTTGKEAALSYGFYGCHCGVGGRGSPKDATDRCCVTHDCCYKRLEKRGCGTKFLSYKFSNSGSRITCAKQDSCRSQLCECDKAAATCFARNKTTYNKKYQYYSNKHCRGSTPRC
Description: filter; biphasic, Kd2 240 nM, mole fraction 0.50; TBSC, 37 C. The conditions noted are these: tags: supplied by Eli Lilly. Here is the method:
(§1) The nitrocellulose filter partitioning method was used as described in SELEX Patent Applications to determine the affinity of RNA ligands for sPLA_2 and for other promins. Filter discs (nitrocellulose/cellulose acetate mixed matrix, 0.45 µm pore size, Millipore) were placed on a vacuum manifold and washed with 5 ml of TBSC buffer under vacuum. Reaction mixtures, containing ^32P labeled RNA pools and sPLA_2, were incubated in TBSC for 5 minutes at 37° C., filtered, and then immediately washed with 5 ml TBSC. The filters were air-dried and counted in a Beckman liquid scintillation counter without fluor.
(§2) The dissociation constants for representative members of families I–VI, orphan and other ligands were determined by nitrocellulose filter binding experiments and are listed in Table III. Unlike random RNA, all tested ligands from the 2'OH SELEXes bound biphasically.

The target of data set [2] is T1, secretory phospholipase A2 (sPLA2). Description: filter; biphasic, Kd2 350 nM, mole fraction 0.70; TBSC, 37 C. The conditions noted are these: tags: supplied by Eli Lilly. Here is the method:
as §1, §2

The target is the same in data set [3]. Description: filter; biphasic, Kd2 270 nM, mole fraction 0.13; Table III prints SEQ 103, Table IV SEQ 20; TBSC, 37 C. The conditions noted are these: tags: supplied by Eli Lilly. Here is the method:
as §1, §2

The target in data set [4] is pancreatic phospholipase A2 (bpPLA2) (Bos taurus, UniProt P00593 P00593:23-145). Description: filter; specificity control, like random RNA; TBSC. Here is the method:
(§3) The affinity of sPLA_2 ligands 2, 72, 80, 87, NN19 and NN19.15 (SEQ ID NOs.:11, 20, 53, 54, 64, and 117, respectively) for proteins other than sPLA_2 was determined by nitrocellulose partitioning (Tables IV and V). Like sPLA_2, hen egg white lysozyme, bFGF and elastase are small, highly cationic proteins. Bovine pancreatic PLA_2 is an evolutionarily and structurally related enzyme. […] Specificity is particularly well illustrated by the affinities for bovine pancreatic PLA_2 which is 10^4-fold less than that for human sPLA_2.
(§4) *Standard binding experiments were performed to the specified target protein in TBSC and K_d's is calculated by curve fitting. The ligands bind no better than randomized RNA (30N1) to lysozyme (hen egg-white), human basic fibroblast growth factor basic (bFGF) and bovine pancreatic PLA₂. The sPLA₂ K_d that of the high affinity species.

In data set [5] the target is lysozyme (egg white) (Gallus gallus, UniProt P00698 P00698:19-147). Description: filter; specificity control, like random RNA; TBSC. The conditions noted are these: tags: 6x crystallized. Here is the method:
as §3, §4

For data set [6], the target named is T2, basic fibroblast growth factor (bFGF) (Homo sapiens, UniProt P09038 P09038:143-288). Description: filter; specificity control, like random RNA; TBSC. Here is the method:
as §3, §4

For data set [7], the target named is C1q (printed Clq) (Homo sapiens, UniProt P02745;P02746;P02747 P02745:23-245,P02746:28-253,P02747:29-245). Description: filter; specificity control, like random RNA; TBSC. The conditions noted are these: chain copies: 6. As to the method:
as §3
(§5) *Standard binding experiments were performed to the specified target protein in TBSC and K_d's calculated by curve fitting. The ligands bind no better than randomized RNA (30N1) to human neutrophil elastase, human basic fibroblast growth factor (bFGF), and human immunoglobulin G (IgG and C1q).

In data set [8] the target is T2, basic fibroblast growth factor (bFGF). Description: filter; specificity control, like random RNA; TBSC. Here is the method:
as §3, §5
This is another data set of the same source.

Data set [9] has as its target neutrophil elastase (Homo sapiens, UniProt P08246 P08246:30-267). Description: filter; specificity control, like random RNA; TBSC. Here is the method: as §3, §5
Data set [10] has as its target T1, secretory phospholipase A2 (sPLA2). Description: filter; Table V prints 0.4 nM; TBSC, 37 C. The conditions noted are these: tags: supplied by Eli Lilly.

T2 sequence (P09038 143-288, one chain of several): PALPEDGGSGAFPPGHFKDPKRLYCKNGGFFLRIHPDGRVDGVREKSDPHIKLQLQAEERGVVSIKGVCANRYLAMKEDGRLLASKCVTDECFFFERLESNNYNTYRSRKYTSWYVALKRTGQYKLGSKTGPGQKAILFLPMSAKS
lysozyme (egg white), sequence (P00698 19-147, one chain of several): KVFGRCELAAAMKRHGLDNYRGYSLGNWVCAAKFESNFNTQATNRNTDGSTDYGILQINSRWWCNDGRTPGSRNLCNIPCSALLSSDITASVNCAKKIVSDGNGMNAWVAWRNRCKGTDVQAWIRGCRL
C1q (printed Clq), sequence (P02745 23-245, chain 1 of 3): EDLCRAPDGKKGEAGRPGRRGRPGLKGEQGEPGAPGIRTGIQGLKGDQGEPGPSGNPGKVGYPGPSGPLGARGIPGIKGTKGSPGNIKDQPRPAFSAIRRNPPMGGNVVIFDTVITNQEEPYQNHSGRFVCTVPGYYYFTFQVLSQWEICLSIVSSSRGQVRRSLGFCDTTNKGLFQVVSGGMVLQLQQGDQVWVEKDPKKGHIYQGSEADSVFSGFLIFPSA
C1q (printed Clq), sequence (P02746 28-253, chain 2 of 3): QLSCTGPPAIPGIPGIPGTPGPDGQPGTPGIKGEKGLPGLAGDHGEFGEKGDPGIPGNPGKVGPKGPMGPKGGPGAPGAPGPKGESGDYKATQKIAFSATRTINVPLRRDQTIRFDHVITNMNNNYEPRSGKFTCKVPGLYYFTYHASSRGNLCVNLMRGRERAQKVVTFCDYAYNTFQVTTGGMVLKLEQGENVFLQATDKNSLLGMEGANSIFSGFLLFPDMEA
C1q (printed Clq), sequence (P02747 29-245, chain 3 of 3): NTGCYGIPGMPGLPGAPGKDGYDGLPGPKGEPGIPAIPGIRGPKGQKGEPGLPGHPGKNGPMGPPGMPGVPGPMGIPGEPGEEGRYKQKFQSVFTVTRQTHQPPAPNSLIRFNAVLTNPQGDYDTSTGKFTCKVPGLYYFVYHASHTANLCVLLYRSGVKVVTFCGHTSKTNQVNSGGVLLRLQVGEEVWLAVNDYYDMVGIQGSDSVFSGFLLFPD
pancreatic phospholipase A2 (bpPLA2), sequence (P00593 23-145, one chain of several): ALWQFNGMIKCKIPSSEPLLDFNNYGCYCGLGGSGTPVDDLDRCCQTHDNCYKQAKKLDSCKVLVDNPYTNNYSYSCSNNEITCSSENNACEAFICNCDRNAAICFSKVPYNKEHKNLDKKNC
neutrophil elastase, sequence (P08246 30-267, one chain of several): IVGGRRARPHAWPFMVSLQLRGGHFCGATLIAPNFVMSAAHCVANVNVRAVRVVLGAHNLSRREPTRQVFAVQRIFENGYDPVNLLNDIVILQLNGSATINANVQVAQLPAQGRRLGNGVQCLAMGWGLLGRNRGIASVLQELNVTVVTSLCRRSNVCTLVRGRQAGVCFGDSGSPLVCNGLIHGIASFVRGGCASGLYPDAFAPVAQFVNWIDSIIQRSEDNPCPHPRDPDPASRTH

B1: 18 (ssRNA)
RNA: GGGAGCUCAGAAUAAACGCUCAAAUCGCAUCAUGUACCGCAAGACGUAUUCUAUUCGACAUGAGGCCCGGAUCCGGC
What is called Kd is the concentration at which binding is half-saturated. A lower Kd goes with a tighter complex. In data set [1], B1 registered an equilibrium dissociation constant (Kd) of 5 nM. This counts as single-digit nanomolar.

B2: 54 (ssRNA)
RNA: B1 RNA with C26U, C40U
B2: the equilibrium dissociation constant (Kd) in data set [2] is 16.6 nM.

B3: 72 (ssRNA)
RNA: GGGAGCUCAGAAUAAACGCUCAAGACCUCUGCUUACAGCCCGGCUGAGACACUUCGACAUGAGGCCCGGAUCCGGC
Take B3: the Kd was 0.5 nM in [3], 29000 nM in [4], 1500 nM in data set [5] and 180 nM in data set [6].

B4: NN19.15 (ssRNA)
RNA: GGGAAAAGAAGACCGGCCGGCGCCAUAGCCGAGAUCCGAGGUGUUGCCGAGAA
modifications: 2'-NH2 all C and U
Turning to B4, the dissociation constant (Kd) in data set [7] is 1000 nM; in data set [8] it was 165 nM; in data set [9] it was 40 nM; in data set [10], 1.7 nM.
